Experiments:
[1] = Enantioselectivity, GC analysis of hydrolysis of acetic acid esters; type: biochemical; conditions: for conversion %: ^2 only complete conversion could be measured
Method: To assay the activity of the enzymes on a range of acetic acid esters gas chromatography was used. The samples were analyzed for the production of chiral alcohols by the gas chromatograph GC-17A (Shimadzu, Duisburg, Germany) equipped with FID detector and CP-Chirasil-DEX CB (Chrompack (Middelburg, Netherlands), 25 m×0.25 mm ID) at a helium flow of 1.3 ml/min. The temperature programme included: 5 min at 60° C., followed by an increase of 5° C. per min until 190° C. was reached. For the GC analysis, activity-tests were run in 1 M Tris buffered solutions and using 10 mM substrates dissolved in DMSO as 0.1 M stock solutions. 2 μg of the enzyme were added and tests incubated over night before the corresponding alcohols could be extracted by treatment with acetic acid ethyl ester and analyzed by GC.

[2] = Enzyme activity fingerprinting with substrate cocktails; type: biochemical; conditions: substrate 7-(3-octylcarboxy-(3-hydroxy-3-methyl-butyloxy))-coumarine; fingerprint analysis, 15 μM, 30 min
Method: The enzyme activity fingerprinting used 10 substrates and was carried out as described previously. The assay conditions were 75% PBS buffer at pH 7.4, 25% DMSO and 0.0025% SDS. Each substrate was present in the cocktail at 15 μM, the total concentration of the substrate cocktail was 150 μM. EstA3 was added at a concentration of 0.75 mg/L and EstCE1 at 0.2075 mg/L. The reaction time was 30 min. The chemical background was measured by recording the products observed under the same assay conditions after a 5 day incubation in the absence of the enzyme. The blank value was taken from the reaction after 30 min incubation in the absence of the enzyme.

[3] = acetic acid ester of R-(+)-3-chlor-1-phenyl-1-propanol
[4] = acetic acid ester of rac-1-octin-3-ol
[5] = acetic acid ester of trimethylsilylbutinol
[6] = substrate Acetic acid ester of tetrahydronaphthylamin
[7] = substrate acetic acid ester of (+/−)-1-octin-3-ol
[8] = substrate acetic acid ester of (+/−)-1-octin-3-ol, 10 mM, over night
[9] = substrate acetic acid ester of R-(+)-3-chlor-1-phenyl-1-propanol
[10] = substrate acetic acid ester of cis-1,2-cyclohexandiol, values marked ^1: substrate conversion after 12 h
[11] = substrate acetic acid ester of phenylethylamin
[12] = substrate acetic acid ester of trans-1,2-cyclohexandiol
[13] = substrate acetic acid ester of trans-1,2-cyclohexandiol, in text: conversion of the preferred enantiomer
[14] = substrate acetic acid ester of trimethylsilylbutinol
[15] = substrate cis-3,5-diacetoxy-1-cyclopenten
[16] = substrate cis-3,5-diacetoxy-1-cyclopenten, conversion for the preferred enantiomer
[17] = substrate isopropylidenglycerolacetate (rac.), values marked ^1: substrate conversion after 12 h
[18] = substrate menthylacetate, 1. enantiomer (+)
[19] = substrate menthylacetate, 2.e. (−)

B1: EstCE1: recombinant enzyme having carboxyl esterase activity, amino acid sequence SEQ ID NO: 4, family VIII of bacterial lipolytic enzymes (protein)
chain: MSIADQSLAKRVQGVSQQAIDEGRIVGSVVLIARHGRVIYANASGYADREQKKPMVRETQFRLSSVSKPYITLAAMRMIEQQKLGLDDTVSRWLPWFTPALADGVRPPIKIRHLLSHTAGLDYRLSQPAEGPYHRLGIKDGMELSSLTLEQNLRLLAQADLLAEPGSEFRYSLAIDVLGAVLEQVAGEPLPQVFNHWVAQPLGLRNTGFYTTDVDNLATAYHDTAAEPEPIRDGMLLTLPEGFGFEIELAPSRALDAQAYPSGGAGMVGDADDVLQLVETLRTGKEGILQPATAALMRQAHVGSHAETQGPGWGFGFGGAVLEDAQLAATPQHNGTLQWGGVYGHSWFYDPQAAISVVALTNTAFEGMSGRYPLQIRDAVYGTNEPTR
modifications: metagenomic sequence
hydrolysis, in words [1, 3]: capable of hydrolyzing | conversion, in words ([1]; acetic acid ester of cis-1,2-cyclohexanediol): capable of converting | conversion, in words ([1]; acetic acid ester of isopropylidene glycerol): capable of converting | hydrolysis, in words [1, 4]: capable of hydrolyzing | hydrolysis, in words [1, 5]: capable of hydrolyzing | conversion % of 1.e [1, 6]: 0% | conversion % of 2.e [1, 6]: 0% | ee % [1, 7]: 3% | conversion % of 1.e [1, 8]: 64% | conversion % of 2.e [1, 8]: 60% | conversion % [1, 9]: 100^2% | ee % ([1]; substrate acetic acid ester of cis-1,2-cyclohexandiol): 0% | conversion % of 1.e [1, 10]: 100^1% | conversion % of 2.e [1, 10]: 100^1% | conversion % of 1.e [1, 11]: 0% | conversion % of 2.e [1, 11]: 0% | conversion % of 2.e [1, 12]: 45% | ee % [1, 12]: 38% | conversion % of 1.e [1, 13]: 100% | conversion % [1, 14]: 100^2% | conversion % of 2.e [1, 15]: 59% | ee % [1, 15]: 66% | conversion % of 1.e [1, 16]: 12% | ee % ([1]; substrate isopropylidenglycerolacetate (rac.)): 0% | conversion % of 1.e [1, 17]: 100^1% | conversion % of 2.e [1, 17]: 100^1% | ee % ([1]; substrate menthylacetate (rac), for the (+)-enantiomer): 100% | conversion % of 1.e [1, 18]: 100% | conversion % of 2.e [1, 19]: 0%

B2: EstA3: recombinant enzyme having carboxyl esterase activity, amino acid sequence SEQ ID NO: 2, family VIII of bacterial lipolytic enzymes (protein)
chain: MSAEELGFLPDRLARISDHIQTNYLDNGKLPFASLLIGRGDDIALQWSSGVADDAIFRIASMTKPVTSVAFMQLVEQGKVALTDPVAKYIPEFAKLGVFVAGGGNIPFVSRPPTMPMRIVDVLRHTTGFTYSFQERSNIDAAYRKTDVESWTRSTSQSFIDTLAEIPLEFDPGTQWNYSVSTDVLGILIERISGQSLPDYFRDHIFAPLGMVDTCFTVPADKAARIPQCFAFDPATKMKLFDEAGASSLWTKGWSFNSGGGGLASSVADYHRFCRMLLNGGALDGIQIISPKTLELMTANHLPGGQDLTQMSKSLFSEAEMAGIGFGLGFATTIDSVATLTPCSTGDFYWGGMYSTAFFVDPVEDIIMIFMTQLMPSSTYPVRREIKTMIYSALAA
modifications: metagenomic sequence
conversion of secondary ester, in words [2]: able to convert | hydrolysis, in words [1, 3]: capable of hydrolyzing | hydrolysis, in words [1, 4]: capable of hydrolyzing | hydrolysis, in words [1, 5]: capable of hydrolyzing | conversion % of 1.e [1, 6]: 0% | conversion % of 2.e [1, 6]: 0% | ee % [1, 7]: 12% | conversion % of 1.e [1, 8]: 24% | conversion % of 2.e [1, 8]: 18% | conversion % [1, 9]: 6^2% | conversion % of 1.e [1, 10]: 0% | conversion % of 2.e [1, 10]: 0% | conversion % of 1.e [1, 11]: 0% | conversion % of 2.e [1, 11]: 0% | conversion % of 2.e [1, 12]: 0% | conversion % of 1.e [1, 13]: 0% | conversion % [1, 14]: 45^2% | conversion % of 2.e [1, 15]: 0% | ee % [1, 15]: 100% | conversion % of 1.e [1, 16]: 24% | conversion % of 1.e [1, 17]: 0% | conversion % of 2.e [1, 17]: 0% | conversion % of 1.e [1, 18]: 0% | conversion % of 2.e [1, 19]: 0%
